2 molecules from PMC9892613 can be followed below.

Assay [1] has as its target HIV-1 capsid protein p24 (His-p24) (HIV-1) (UniProt P12493). Put plainly: ITC; nanobody (200 uM, syringe) titrated into His-p24 (12.5 uM, cell); 10 mM phosphate pH 8, 25 mM NaCl; 25.1 C; at least triplicate. A general note: Isothermal titration calorimetry measures the heat released or taken up as one component is titrated into another.
Assay [2] shares this target. Put plainly: BLI; in the same nanobody storage buffer (Fig. S5). A general note: Biolayer interferometry detects binding as a change in optical thickness at a sensor tip.

Changes are numbered by the printed parent chain. “And” between values parts separate entries of the source, which are not always exact repeats. Identical values can stand only once.

B1: nanobody 59H10 (VHH)
VHH: DVQLQESGGGLVQAGGSLRLSCAASGSISRFNAMGWWRQAPGKEREFVARIVKGFDPVLADSVKGRFTISIDSAENTLALQMNRLKPEDTAVYYCFAALDTAYWGQGTQVTVSS
A word on the Kd: it is the equilibrium constant for the complex coming apart. A low value points to a tighter complex. For B1, in assay [1], the dH was -3.9 kcal/mol. Moreover, the equilibrium dissociation constant (Kd) in assay [2] was found to be 0.77 nM.

B2: nanobody 37E7 (VHH)
VHH: B1 VHH with F55G, D56Y, P57A
In the case of B2, in assay [1], the dH is -4.1 kcal/mol and -4.09 kcal/mol. The molecule also had a Kd in assay [2] of 9.6 nM.
